The nature of data set [1]: Steady state kinetics of glutathione reductase (Gor) variants with NADH. The note with it: for Km: enzyme could not be saturated, 96 mM Tris-Cl pH 7.5, 2.5 mM GSSG. The format is biochemical. The protocol: (§1) Expression and Purification of Gor Wild-type and Variants. E. coli Gor (EC 1.6.4.2) is a homo-dimeric flavoenzyme containing 450 amino acid residues with 1 FAD per subunit. To prevent interference from endogenous protein, Gor wild-type and variants were expressed using E. coli Δgor::kan strain containing pQElac based plasmids encoding for the Gor wild-type or variants. 1% (v/v) cells from an overnight culture were cultured in 2×YT media with 200 μg/mL ampicillin and 50 μg/mL kanamycin in shake flasks at 37° C. in a rotary shaker to an OD600 of 0.4-0.6. The cultures were then induced with 0.5 mM IPTG and incubated at 30° C. with shaking for 24 h. The cells were harvested with centrifugation and lysed by bead beating with Zymo His Binding Buffer (Zymo Research, CA, USA). Protein purification was performed with Zymo His-Spin Protein miniprep purification kit according to the manufacturer's instructions. The concentrations of purified protein were quantified by Coomassie dye—based assays (Bradford) using BSA (Bovine Serum Albumin) as standards.
(§2) Specific Activity and Steady State Kinetic Analyses for Gor Wild-type and Variants. The specific activity and kinetic parameters of Gor with the different cofactors, shown in FIG. 1, were measured using the following methods. For measuring the specific activity with NMNH, the 100 μL reaction mixture contained 96 mM potassium phosphate buffer pH 7.5, 2.5 mM GSSG and 0.8 mM NMNH. NMNH was generated using methods described in Black et al. (Nat. Chem. Biol. 16:87-94 (2020). Briefly, 4 mM NMN^+ was incubated in a solution containing 50 mM Tris-Cl at pH 8.5, 0.2 mM EDTA, 50 mM Na2HPO4, 5 mM D-glyceraldehyde-3-phosphate, and 28 μM of purified E. coli glyceraldehyde-3-phosphate dehydrogenase. The reaction was incubated at 30° C. for 8 h. The protein was removed by an Amicon Ultra 3 K filter, and the flow-through was dried under vacuum. Assays investigating the steady-state kinetic parameters were completed with 100 μL reaction mixtures containing 96 mM Tris-Cl buffer pH 7.5, 2.5 mM GSSG and varied cofactor concentrations from 0.01 mM to 1.6 mM. The assay was started by addition of 10 μL of purified protein at appropriate concentration at 25° C. The kinetic parameters were measured by monitoring the NAD(P)H consumption at 340 nm in 96-well plate. Data was fit to the Michaelis-Menten equation to generate estimates of apparent catalytic efficiency (kcat/Km). The results are the average of three independent experiments.

A short description of data set [2]: Steady state kinetics of glutathione reductase (Gor) variants with NADPH. In kind it is biochemical. The procedure:
as §1
as §2, with “Assays investigating the steady-state kinetic parameters were completed with 100 μL reaction mixtures containing 96 mM Tris-Cl buffer pH 7.5, 2.5 mM GSSG and varied cofactor concentrations from 0.01 mM to 1.6 mM.” left out

Data set [3] can be described thus: Steady state kinetics of glutathione reductase (Gor) variants with NMNH. In kind it is biochemical. The note with it: for Km: enzyme could not be saturated, 96 mM Tris-Cl pH 7.5, 2.5 mM GSSG. The protocol: as §1, §2
Data set [4] is described as follows: Specific activity of Gor variants with NMNH. In kind it is biochemical. The protocol: as §1
Specific Activity and Steady State Kinetic Analyses for Gor Wild-type and Variants. The specific activity and kinetic parameters of Gor with the different cofactors, shown in FIG. 1, were measured using the following methods. For measuring the specific activity with NMNH, the 100 μL reaction mixture contained 96 mM potassium phosphate buffer pH 7.5, 2.5 mM GSSG and 0.8 mM NMNH. […] The kinetic parameters were measured by monitoring the NAD(P)H consumption at 340 nm in 96-well plate. […]

The next data set deals with E. coli SHuffle strain. As to the kind of experiment: GDH-Gor coupled growth rescue in SHuffle strain. Conditions: 0.5 mM diamide, varying NMN^+ concentrations. The format is cell-based, Escherichia coli. The protocol: Culture conditions for GDH-Gor coupled growth rescue in SHuffle strain. The electro-competent cells of SHuffle harboring pLZ311 or pLZ312 were made as follows: The SHuffle cells were cultured in 200 mL SOB media with spectinomycin at 30° C. with shaking until OD600 reached 0.4-0.6. The culture was chilled on ice for 15 min and the cells were pelleted at 4° C., 4,000×g. Collected cells were washed with 10% glycerol in water (sterile, ice cold) and resuspended with 5 mL of 10% glycerol in water (sterile, ice cold), and stored as 50 μL aliquots at −80° C.
Glucose facilitator (encoded by glf) was used for uptake of unphosphorylated glucose into the cells. The co-transformation of Bs gdh and Zm glf was performed as follows: Thaw SHuffle/pLZ311 or SHuffle/pLZ312 electro-competent cells on ice, add 1 μL Bs gdh (pEK101 or pLZ210) and 1 μL Zm glf(pSM109) plasmid DNA to 50 μL competent cells, mix, and electroporate. Cells were recovered with 1 mL SOC at 37° C. with shaking for 1 h. The cells were added to 10 mL 2×YT with 10 g/L glucose, 0.5% arabinose, kanamycin, chloramphenicol, and ampicillin. After incubation at 37° C. with shaking for 10 h, 1 mL cells were washed 3 times and re-suspended in M9 buffer (1×BD Difco M9 Salts). Targeted dilutions after cells reached density of OD600 0.6 were prepared in M9 buffer and 5 μL aliquots were dispensed in series on an agar plate of M9 selection media containing 0.5 mM diamide, 1 g/L yeast extract, 10 g/L glucose, 0.5% arabinose, 0.5 mM IPTG, ampicillin, kanamycin, chloramphenicol and serial NMN concentrations of 0, 2, 4 and 6 mM. Selection plates were incubated at 37° C., and photos were taken to document growth progress.

For data set [5] the following is noted: previously identified variant; cited from earlier work.
Where [6] appears, read: 96 mM Tris-Cl buffer pH 7.5, 2.5 mM GSSG, varied cofactor concentrations, n = 3.

Changes are numbered by the printed parent chain. Names may count otherwise. “Also recorded” adds a separate entry of the source.

B1: Gor I178T (protein, UniProt P06715 1-450, looked up, variant I178T)
Glutathione reductase: MTKHYDYIAIGGGSGGIASINRAAMYGQKCALIEAKELGGTCVNVGCVPKKVMWHAAQIREAIHMYGPDYGFDTTINKFNWETLIASRTAYIDRIHTSYENVLGKNNVDVIKGFARFVDAKTLEVNGETITADHILIATGGRPSHPDIPGVEYGIDSDGFFALPALPERVAVVGAGYTAVELAGVINGLGAKTHLFVRKHAPLRSFDPMISETLVEVMNAEGPQLHTNAIPKAVVKNTDGSLTLELEDGRSETVDCLIWAIGREPANDNINLEAAGVKTNEKGYIVVDKYQNTNIEGIYAVGDNTGAVELTPVAVAAGRRLSERLFNNKPDEHLDYSNIPTVVFSHPPIGTVGLTEPQAREQYGDDQVKVYKSSFTAMYTAVTTHRQPCRMKLVCVGSEEKIVGIHGIGFGMDEMLQGFAVALKMGATKKDFDNTVAIHPTAAEEFVTMR
As for B1, the values for the Km in data set [1], in data set [2] (setting [6]) and in data set [3] were greater than 1500 µM, 40 ± 10 µM and greater than 1500 µM, respectively. In data set [2] (setting [6]), the NADPH kcat amounted to 31 ± 1 s⁻¹. In addition, the “enhanced NMNH-dependent activity compared to the wild type” value in data set [4] (0.8 mM NMNH, 2.5 mM GSSG, vs wild type Ec Gor) is on record as 4 fold.

B2: Gor Ortho: recombinantly engineered E. coli glutathione reductase with I178T, R198M, R204L (SEQ ID NO:8), NMNH-specific (protein)
chain: B1 Glutathione reductase with R198M, R204L
Regarding B2, the Km was greater than 1500 µM in data set [1]; greater than 1500 µM in data set [2] (enzyme could not be saturated, 96 mM Tris-Cl pH 7.5, 2.5 mM GSSG); greater than 1500 µM in data set [3]. Also, the “decrease of catalytic efficiency for NADH by the additional R198M-R204L mutations” value in data set [1] (vs I178T) is reported as roughly 2 fold. For the same molecule, the “saturation of activity with natural cofactors” value in data set [2] (concentrations up to 4 mM NAD(P)H) is “could not be saturated”. In data set [2] (vs Ec Gor wild type), the “reduction of catalytic efficiency for NADPH compared to Ec Gor wild type” value was ~15,000 fold. For the same molecule, the “reduction of catalytic efficiency for NADPH compared to I178T single mutant” value in data set [2] (vs I178T single mutant) is recorded as ~9,000 fold. Besides, the “cofactor specificity switch from native cofactor NADPH to NMNH” value in data set [3] (based on catalytic efficiency measured in vitro) is reported as 60,000 fold. Moreover, the “catalytic efficiency (kcat/Km) for NMNH, fold higher than the wild type” value in data set [3] (vs Ec Gor wild type) was roughly 4 fold. Also, the “change in NMNH-dependent activity on adding R198M-R204L to Ec Gor I178T” value in data set [4] (vs Ec Gor I178T) was “only a modest decrease”. Also, the “growth of SHuffle strain harboring the Gor variant” value with E. coli SHuffle strain is “supporting growth only with NMN^+ cycling; also recorded: only grows with NMNH regeneration”.

B3: R198M-R204L: previously identified Ec Gor variant with R198M-R204L double mutations (protein, UniProt P06715 1-450, looked up, variant R198M R204L)
Glutathione reductase: B1 Glutathione reductase with T178I, R198M, R204L
Consider B3, for which the NADPH-dependent activity entry in data set [5] is “almost completely abolished”.

B4: G174H: Ec Gor single-mutation variant predicted to make salt bridge with the NMNH phosphate group (protein, UniProt P06715 1-450, looked up, variant G174H)
Glutathione reductase: B1 Glutathione reductase with G174H, T178I
In the case of B4, in data set [4] (vs wild type Ec Gor), the “NMNH-dependent activity (in words) compared to the wild type” value is “enhanced NMNH-dependent activity”.

B5: Gor: wild type glutathione reductase from Escherichia coli (SEQ ID NO:7) (protein, listed as Escherichia coli)
chain: B1 Glutathione reductase with T178I
B5: the Michaelis-Menten constant (Km) in data set [1] is greater than 1500 µM; in data set [2] (setting [6]), 60 ± 10 µM; in data set [3] it was greater than 1500 µM. Further, in data set [2] (setting [6]), the NADPH kcat came out at 84 ± 7 s⁻¹. The entries for the “growth of SHuffle strain harboring the Gor variant” value with E. coli SHuffle strain (listed as wild type Ec Gor) and in the data set on E. coli SHuffle strain (listed as wild type Gor) were “robust growth independent of NMN^+ supplementation” and “no growth defects”, respectively.
